Experimental data taken from paper PMC9132996.
pKd: −log10 of the molar value.

Tested on: PutA (proline utilization A) (Ralstonia solanacearum GMI1000)
Assay: MST
Conditions: room temperature 30 min, buffer not stated

Substance	pKd
epsA promoter 336 bp	7.97
phcB promoter 327 bp	7.89
solI promoter 324 bp	7.90
trpEG promoter 291 bp	7.77
